Measurements from US20200255501A1 (VIB VZW, published 2020).

B1: anti-Sap Nanobody688 (VHH)
VHH: QVQLVESGGGLVRAGGSLRLSCAASGSIFRINDMGWYRQAPGKQRELVAAITSGGSTNYADSVKGRFTISRDNAKNTVYLQMNSLKPEDTAVYYCNADFSTVRERRYDYWGQGTQVTVSS
B2: anti-Sap Nanobody683 (VHH)
VHH: QVQLVESGGGLVQAGGSLRLSCAASGSIFRINDMGWYRQAPGKQRELVAAITSGGSTNYADSVKGRFTISRDNAKKMVYLQMNSLKPEDTAVYYCHADFSTGWAPYDYWGQGTQVTVSS
B3: anti-Sap Nanobody704 (VHH)
VHH: QVQLVESGGGLVQPGGSLRLSCAASGFTFSNFAIAWVRQAPGKGLEWVSDINSGGTDTSYAAAVKGRFTISRDNAKNTLYLQMNNLKPEDTAVYYCAKSAQSYFHSTFDHRGQGTQVTVSS
B4: anti-Sap Nanobody707 (VHH)
VHH: QVQLVESGGGLVQAGGSLRLSCAASGSIFRINAMGWYRQASGKQRELVAAITSGGNTNYADSVKGRFTISRDNAKNTVYLQMNSLKPEDTAVYYCNADFGTGGRPYDYWGQGTQVTVSS
B5: anti-Sap Nanobody702 (VHH)
VHH: QVQLVESGGGLVQAGGSLRLSCAASGSIFRVNDMGWYRQAPGKQRELVAIIITGGSTNYADSVKGRFTISRDNAKNTVYLQMNSLRPEDTAVYYCNADFGTGPGRYDYWGQGTQVTVSS

Each binder was assayed against T1, B. anthracis Sap S-Layer assembly domain (Sap^AD; residues 216-814), C-terminal His6 (Bacillus anthracis, UniProt P49051 216-814) (assay: ITC, Nb titrated into fresh monomeric Sapc, 30 °C).
With B1 the Kd was 120 nM. For B2, the Kd was 35 nM.

Each binder was assayed against T1, B. anthracis Sap S-Layer assembly … (assay: isothermal titration calorimetry, […]).
For B3, the Kd was 183 nM. In the case of B4, the Kd is reported as 103 nM. Work on B5 yielded a Kd of 72.5 nM. B2 gave a Kd of 35.8 nM.
